B1: SLC6A17 (parent)
chain: KAVEEELDAEDRPAWNSKLQYILA
B2: MATN2 (parent)
chain: VNVPGSFVCQCYSGYALAEDGKRC

Variants of: B1
Assay: protein stability index of a GFP-peptide fusion (GPS, HEK-293T) (PSI 1-6); higher = more stable
Conditions: c terminus: a fixed tail appended
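Note: lentivirally expressed fusions sorted by FACS into six bins by GFP to DsRed ratio, PSI derived from sequencing read proportions per bin multiplied by bin number.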

Protein stability index of substitutions, site by site:
D8: S 3.15; M 1.92; Q 2.25; N 2.46; H 2.55; I 2.57; R 2.75; T 2.57; E 2.64; K 2.93; C 2.14; L 1.77; Y 2.08; A 3.21; P 3.77; W 1.83; V 2.91; G 2.07; F 2.19
K1: E 3.19; V 3.64; L 2.08; C 1.62; P 3.03; D 2.96; R 2.34; F 2.71; I 2.12; Y 2.05; T 2.39; A 2.65; H 2.83; G 3.25; M 2.77; W 1.74; S 3.24; Q 2.82; N 3.17
E5: M 2.05; P 2.7; K 2.08; R 2.04; S 2.51; Q 1.96; G 1.89; F 1.91; I 2.19; L 2.14; D 1.75; N 1.63; V 2.9; T 2.33; Y 1.66; H 2.32
E6: S 2.14; D 3.44; M 1.5; N 2.45; H 2.55; A 1.86; C 2.07; T 2.24; V 2.13; K 2.7; Q 2.68; I 1.47; P 2.53; F 1.73; W 1.16; L 1.7; G 2.27; Y 2.65; R 2.79
A9: D 2.38; C 2.65
L7: S 3.61; E 3.21; R 3.53; H 3.09; D 3.48; F 2.23; M 2.98; K 2.85; Y 2.51; G 4.11; C 3.5; P 3.64; Q 2.53; A 3.74; T 3.1; I 2.08; N 3.42; V 2.9
E4: P 2.54; S 2.21; K 2.52; R 2.98; H 2.24; G 2.12; F 1.43; Q 2.51; M 1.78; Y 1.8; W 1.4; C 2.31; T 3.27; N 2.63; L 3.26; V 2.03; A 2.79; D 2.79
V3: S 2.65; C 2.77; H 1.52; T 2.43; R 3.14; Q 2.91; A 3.18; E 2.75; I 2.41; D 3.66; L 2.31; N 3.07; W 1.7; F 2.29; M 2.19; Y 2.2; K 2.94; P 2.58; G 2.79
A2: D 2.65; W 1.49; C 2.21; N 2.61; H 2.24; T 1.83; F 1.93; K 2.46; Y 2.51; L 1.55; V 2.23; P 2.68; I 2.19; G 2.81; E 1.96; R 2.28; S 2.81; M 2.43; Q 3

Variants of: B2
Assay: as above
Conditions: c terminus: a fixed tail appended

Protein stability index of substitutions, site by site:
G14: W 1.93; Q 1.83; R 2.81; S 2.44
E19: P 1.54; S 1.43; R 1.51; M 2.33; A 1.93; V 2.29; G 2.83
R23: S 2.35; Q 3.67; A 2.16; F 1.69; K 2.99; C 2.74
A16: I 2.11; R 1.52; M 1.79; V 1.62; N 1.45
C24: K 2.5; Q 2.12; T 2.13; I 2.22; H 2.9; G 2.18; A 1.73; F 1.83
Q10: L 2.46; G 1.65; P 2.15; A 1.56; D 2.47; M 2.88; Y 1.97; T 2.52; R 2.01; H 1.78
K22: M 1.23; P 2.08; W 1.9; A 2.6; G 2.43; N 3.34; L 1.17; S 1.7; Q 1.49
Y15: L 2.19; P 2.81; Q 1.98; E 2.5; W 1.65; D 2.03; A 2.56; H 1.91; M 2.19; N 2.19
N2: I 1.75; K 1.38; Q 2.28; M 1.71; T 2.35
S13: V 1.32; N 2.45; D 2.17; C 3.25; I 1.62; R 1.85; G 2.33
V8: Q 2.51; H 2.34; F 1.79; W 3.21; G 1.92; E 2.53
L17: A 2.85; V 2.3; C 3.36; W 1.92; M 1.81; F 1.03; E 2.58; Y 2.44; N 1.91; P 2.46; I 1.67
G21: T 3.02; I 1.99; M 3.7; K 2.03; P 2.38; V 1.88; A 2; H 2.41
F7: Y 2.01; Q 2.14; G 3.34; D 2.56; T 2.88; L 2.07; H 3.02; W 2.48; V 2.19
D20: C 3.42; Q 1.37; I 2.81; R 1.58; W 1.57; F 2.57
C9: E 3.33; D 4.36; M 2.28; A 1.81; G 2.8; T 2.52; P 3.06; S 3.15; R 2.69; I 1.5; Y 2.2; V 2.32
G5: S 1.91; V 1.17; I 1.45; P 2.31; R 2.17; H 2.6; L 1.06
C11: Q 2.94; H 2.65; D 4.08; N 2.97; E 3.27; T 2.43; A 3.12; R 3.32; G 2.75; K 2.87; I 1.72
S6: C 2.05; N 1.43; E 2.67; H 2.27; Y 1.87
A18: S 1.93; D 2.36; Y 2.84; H 2.55; Q 2.38; R 2.38
Y12: A 2.73; D 4.36; N 1.98; I 1.36; L 2.21; E 3.47; W 2.62; V 2.13
P4: K 1.92; Q 2.97; A 1.87; T 1; H 1.47; L 1.99; V 2.28; I 1.04; S 1.34; D 1.91
V3: K 2.82; S 2.16; E 1.19; P 2.08; R 2.05; Y 2.52
V1: R 1.37; L 2.17; G 2.6; I 2.43; M 1.87; Q 2.01; A 2.14; P 2.86; C 2.15

From the supplement of paper PMC10567573
